In the Human Domainome abundance scans (Beltran et al. 2025):
± gives the uncertainty stated by the source.

B1: Membrane-associated guanylate kinase, WW and PDZ domain-containing protein 2, residues 601 to 682; numbered along this chain, Q86UL8 (parent)
chain: AELMTLTIVKGAQGFGFTIADSPTGQRVKQILDIQGCPGLCEGDLIVEINQQNVQNLSHTEVVDILKDCPIGSETSLIIHRG
B2: Endonuclease CUE2, residues 9 to 47; numbered along this chain, P36075 (parent)
chain: HESKLSILMDMFPAISKSKLQVHLLENNNDLDLTIGLLL

Variants of: B1
Assay: abundance fitness (aPCA) (normalised: wild type 0, dead -1); higher = more abundant; growth selection in yeast, the domain comes from the species named
Conditions: Homo sapiens

Abundance fitness of substitutions, site by site:
A1: R 0.216 ± 0.31; F -0.589 ± 0.47; G -0.113 ± 0.065; W -0.397 ± 0.35; C -0.015 ± 0.32; D -0.198 ± 0.13; E -0.024 ± 0.11; V 0.093 ± 0.063
T5: Y -0.159 ± 0.057; N 0.03 ± 0.066; H -0.139 ± 0.067; F -0.217 ± 0.097; D -0.024 ± 0.075; K -0.024 ± 0.057; E -0.092 ± 0.054; A -0.098 ± 0.043; I -0.169 ± 0.12; C -0.142 ± 0.058; W -0.208 ± 0.051; S 0.02 ± 0.042; V -0.088 ± 0.037; G -0.121 ± 0.042; R -0.167 ± 0.036; L -0.101 ± 0.039; P -0.033 ± 0.048; M 0.029 ± 0.068; Q -0.088 ± 0.05
T7: G -0.168 ± 0.03; C -0.027 ± 0.042; V -0.126 ± 0.038; Y -0.121 ± 0.075; A -0.008 ± 0.035; M -0.083 ± 0.059; L -0.075 ± 0.036; N 0.044 ± 0.087; E -0.133 ± 0.039; F -0.017 ± 0.068; Q -0.085 ± 0.048; R -0.052 ± 0.032; K 0.002 ± 0.05; P -0.04 ± 0.046; S -0.103 ± 0.037; I -0.013 ± 0.064
L3: W -0.162 ± 0.035; Q 0.014 ± 0.037; G -0.018 ± 0.027; H 0.035 ± 0.047; D -0.024 ± 0.056; V -0.032 ± 0.031; P -0.2 ± 0.037; M 0.029 ± 0.041; F 0.016 ± 0.066; N 0.056 ± 0.053; S -0.028 ± 0.032; I 0.014 ± 0.06; C -0.095 ± 0.047; T 0.015 ± 0.035; E 0.038 ± 0.039; A -0.03 ± 0.033; K 0.042 ± 0.038
M4: P -0.081 ± 0.04; F 0.058 ± 0.054; G -0.118 ± 0.029; S -0.097 ± 0.033; A -0.1 ± 0.034; W -0.102 ± 0.032; D -0.013 ± 0.056; Q -0.092 ± 0.044; L -0.078 ± 0.031; N -0.063 ± 0.076; Y -0.022 ± 0.062; I -0.061 ± 0.054; H -0.026 ± 0.065; V -0.039 ± 0.031; T -0.014 ± 0.038; C -0.136 ± 0.041; K -0.002 ± 0.055; R -0.157 ± 0.026; E -0.106 ± 0.044
V9: H -0.222 ± 0.083; M 0.003 ± 0.053; T -0.011 ± 0.052; C -0.12 ± 0.056; W -0.072 ± 0.037; P -0.135 ± 0.06; F -0.044 ± 0.064; S -0.102 ± 0.041; K -0.128 ± 0.049; D -0.184 ± 0.065; E -0.088 ± 0.035; G -0.077 ± 0.027; N -0.207 ± 0.11; A -0.082 ± 0.035; Q -0.071 ± 0.05; L -0.139 ± 0.039; Y -0.039 ± 0.075; R -0.052 ± 0.03; I -0.087 ± 0.08
K10: A -0.108 ± 0.038; C -0.192 ± 0.046; D -1.29 ± 0.19; E -0.662 ± 0.053; F -0.372 ± 0.064
E2: W -0.214 ± 0.046; N 0.009 ± 0.063; I -0.139 ± 0.065; L -0.131 ± 0.035; K -0.093 ± 0.046; F -0.113 ± 0.059; Q -0.066 ± 0.042; V -0.077 ± 0.038; T -0.034 ± 0.038; S -0.061 ± 0.034; G -0.049 ± 0.034; C -0.039 ± 0.054; H -0.113 ± 0.053; Y -0.094 ± 0.064; R -0.098 ± 0.032; A -0.032 ± 0.034; M -0.001 ± 0.044; P -0.205 ± 0.043
I8: A -0.021 ± 0.038; L 0.036 ± 0.036; R -0.397 ± 0.033; E -0.52 ± 0.058; C -0.008 ± 0.051; G -0.084 ± 0.027; K -0.261 ± 0.056; W -0.063 ± 0.038; Q -0.08 ± 0.043; F 0.046 ± 0.074; H -0.113 ± 0.078; D -1.07 ± 0.12; V -0.002 ± 0.033; T 0.042 ± 0.051; P -0.09 ± 0.046; M -0.053 ± 0.053; N -0.282 ± 0.077; S -0.059 ± 0.037; Y -0.012 ± 0.068
L6: T -0.059 ± 0.05; G -0.315 ± 0.032; C 0.038 ± 0.053; Y -0.064 ± 0.078; A -0.124 ± 0.036; K -0.098 ± 0.044; Q -0.083 ± 0.053; M -0.059 ± 0.049; V -0.021 ± 0.036; S -0.075 ± 0.042; P -0.204 ± 0.053; R -0.123 ± 0.031; W -0.147 ± 0.043; D -0.366 ± 0.082; H 0.007 ± 0.073; N -0.166 ± 0.074; I 0.008 ± 0.061; E -0.193 ± 0.043; F 0.003 ± 0.091

Variants of: B2
Assay: as above
Conditions: Saccharomyces cerevisiae (strain ATCC 204508 / S288c)

Abundance fitness: each site, then its substitutions
N29: K -0.364 ± 0.076; W 0.039 ± 0.038; T -0.402 ± 0.088; L -0.112 ± 0.058; Q 0.037 ± 0.082; C 0.052 ± 0.057; F -0.059 ± 0.3; P -0.324 ± 0.088; R -0.222 ± 0.035; D -0.082 ± 0.11; S -0.065 ± 0.05; A -0.086 ± 0.041; V -0.262 ± 0.051; M -0.008 ± 0.063; H -0.117 ± 0.14
T34: S -0.235 ± 0.045; R -0.993 ± 0.099; L -0.729 ± 0.059; D -0.88 ± 0.13; N -0.296 ± 0.45; K -0.863 ± 0.37; C -0.091 ± 0.06; P -0.943 ± 0.14; V 0.008 ± 0.037; Q -0.899 ± 0.12; I -0.447 ± 0.13; A -0.092 ± 0.036; E -0.903 ± 0.11; W -1.19 ± 0.18; G -0.632 ± 0.059
G36: F -0.14 ± 0.094; V -0.383 ± 0.069; W -0.452 ± 0.055; E 0.067 ± 0.046; T 0.021 ± 0.041; C -0.042 ± 0.055; K 0.076 ± 0.045; A 0.025 ± 0.036; P -0.056 ± 0.039; L -0.438 ± 0.074; N -0.054 ± 0.45; D 0.058 ± 0.064; S 0.092 ± 0.042; Q 0.004 ± 0.064; Y -0.447 ± 0.097; M -0.291 ± 0.18
L37: T 0.098 ± 0.048; M -0.042 ± 0.042; N -0.003 ± 0.075; R 0.081 ± 0.041; P -0.099 ± 0.046; H -0.034 ± 0.086; Q -0.016 ± 0.055; E 0.001 ± 0.041; K 0.045 ± 0.083; W -0.128 ± 0.047; C 0.06 ± 0.06; G -0.014 ± 0.038; V -0.054 ± 0.038; D -0.049 ± 0.075; S 0.026 ± 0.04; A 0.055 ± 0.033; Y 0.007 ± 0.054
N28: S 0.035 ± 0.049; W -0.485 ± 0.092; Q -0.053 ± 0.061; T -0.353 ± 0.078; V -0.469 ± 0.056; P -0.68 ± 0.11; R -0.085 ± 0.034
L39: E 0.154 ± 0.05; Q 0.132 ± 0.05; M 0.167 ± 0.057; T 0.122 ± 0.044; H -0.062 ± 0.2; G 0.122 ± 0.042; K 0.33 ± 0.094; F -0.084 ± 0.11; W -0.066 ± 0.047; P -0.199 ± 0.048; S 0.1 ± 0.037; I -0.182 ± 0.13; N 0.081 ± 0.078; R 0.276 ± 0.035; V -0.046 ± 0.047
L31: G -0.913 ± 0.084; R -0.841 ± 0.072; P -1.01 ± 0.21; K -0.752 ± 0.18; M -0.211 ± 0.099; C -0.388 ± 0.053; I -0.064 ± 0.17; Q -0.483 ± 0.077; N -0.881 ± 0.37; T -0.35 ± 0.046; W -0.694 ± 0.085; S -0.816 ± 0.093; H -0.676 ± 0.27; V 0.136 ± 0.033; E -0.633 ± 0.11
D32: K -0.003 ± 0.079; G -0.082 ± 0.034; T -0.183 ± 0.052; R -0.091 ± 0.038; N 0.07 ± 0.25; H -0.106 ± 0.056; A -0.124 ± 0.039; Q 0.032 ± 0.038; V -0.302 ± 0.045; W -0.499 ± 0.068; E -0.055 ± 0.054; L -0.416 ± 0.078; Y -0.659 ± 0.33
L38: V -0.27 ± 0.053; Q -0.664 ± 0.12; N -0.471 ± 0.25; A -0.375 ± 0.054; G -0.557 ± 0.049; S -0.768 ± 0.078; C -0.116 ± 0.064; D -0.1 ± 0.25; K -0.983 ± 0.11; M -0.054 ± 0.074; R -0.792 ± 0.06; E -0.568 ± 0.058; P -0.497 ± 0.085; T -0.628 ± 0.12; W -1.02 ± 0.13
L33: E 0.06 ± 0.042; S -0.034 ± 0.045; F -0.258 ± 0.053; I -0.089 ± 0.062; Y -0.004 ± 0.047; R 0.082 ± 0.032; C 0.012 ± 0.053; H -0.456 ± 0.23; M -0.001 ± 0.046; W -0.4 ± 0.051; V 0.03 ± 0.035; G 0.031 ± 0.032; T -0.004 ± 0.051; Q -0.068 ± 0.062; P -0.008 ± 0.05; D 0.031 ± 0.047; K 0.036 ± 0.061; N 0.075 ± 0.057
I35: M -0.065 ± 0.044; G -0.596 ± 0.044; D -0.78 ± 0.11; W -0.483 ± 0.071; K 0.07 ± 0.048; T -0.053 ± 0.051; V -0.067 ± 0.04; C -0.114 ± 0.044; A -0.04 ± 0.043; S -0.153 ± 0.045; L -0.165 ± 0.036; F -0.75 ± 0.18; Y -0.174 ± 0.058; H -0.371 ± 0.12; R 0.07 ± 0.033; N -0.532 ± 0.17; P -0.8 ± 0.14
D30: R -0.246 ± 0.045; A -0.286 ± 0.035; H -0.145 ± 0.2; S -0.223 ± 0.072; G -0.759 ± 0.067; Q -0.194 ± 0.075; T -0.813 ± 0.17; E -0.171 ± 0.042; L -0.66 ± 0.18; K -0.165 ± 0.11; M 0.097 ± 0.22; C -0.261 ± 0.11
